{
  "source": "paper PMC6475665",
  "about": "“Alone at last! – Heterologous expression of a single gene is sufficient for establishing the five-step Weimberg pathway in Corynebacterium glutamicum” (Metabolic Engineering Communications, 2019)",
  "proteins": {"B1": {"name": "KsaD (Cg0535) (Corynebacterium glutamicum ATCC 13032) (protein)", "chain": "MITATALHGCSLIDGEWVAGKNGEITGFDPRTNASLNPSYSLANSAQLRAATTSAKRAFESYRLTTPEVRADFLDSIADNIDALSGEIVQRASLETGLGTTRLTGEVARTSNQLRLFAETVRSGQFHRVRIERGPRIDLRQRQVPLGPVAVFGASNFPVAFSTAGGDTASALAAGCPVVFKAHNAHPGTAELVGQAVRGAVEKHEFDAGVFNLVYGRGVEIGQELAADPNITAIGFTGSRQGGLALSQTAFSRPVPVPVFAEMSATNPVFVFPGALADLDASSSLAEAFTASVTGSSGQLCTKPGLVFIPRGVVGDAFVALVAAKFKETTGQTMLTQGIAQAWQRGVDNLAAQPSVKILAQGTPGDGENAPGPVVFESDVQALLNNVVLQEEIFGAASLVVRYDSPDQLHQVANSLEGQLTATIHASQDDFQEVSKLIPLLEDLAGRVLYGGWPTGVEVGHTVIHGGPYPATSNAQSTSVGTLAIERFMRPVSYQTFPAELLPDPVSEANKWAVPREIDR", "notes": "N-terminus MITATA after tag (from primer)"}},
  "substrate": "O=CCCC(=O)C(=O)O",
  "experiment": "purified protein",
  "assay_type": "biochemical, Corynebacterium glutamicum",
  "conditions": "5 mM NAD+, 100 mM potassium phosphate, pH 7.5, 30 °C",
  "data": [
    {"protein": "B1", "values": [
      {"measurement": "Km", "value": 870, "unit": "µM"}
    ]}
  ]
}
